Literature values as cited in PMC6958331.

Target: hemopexin (Homo sapiens) (UniProt P02790)
Chain of UniProt P02790 (P02790 24-462): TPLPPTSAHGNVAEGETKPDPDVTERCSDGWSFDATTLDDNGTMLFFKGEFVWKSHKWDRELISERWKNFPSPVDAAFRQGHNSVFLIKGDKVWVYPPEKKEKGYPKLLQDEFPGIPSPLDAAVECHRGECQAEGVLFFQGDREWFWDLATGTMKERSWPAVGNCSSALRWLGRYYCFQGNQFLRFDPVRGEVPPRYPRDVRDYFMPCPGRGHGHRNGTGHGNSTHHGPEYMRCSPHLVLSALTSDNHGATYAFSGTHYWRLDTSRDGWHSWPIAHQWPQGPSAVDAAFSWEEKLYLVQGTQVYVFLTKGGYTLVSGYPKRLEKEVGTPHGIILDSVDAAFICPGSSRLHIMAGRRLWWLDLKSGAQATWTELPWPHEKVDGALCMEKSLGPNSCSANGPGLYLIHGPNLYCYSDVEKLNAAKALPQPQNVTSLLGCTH

Kd: 4 nM
Substance: LRP1/CD91 (from UniProt Q07954)
